# Reference: the RNAGym collection of RNA variant scans (doi:10.1073/pnas.2313332121)
# Variants at the floor of the assay were thinned out.
# B1: TPR 5TU (parent)
# chain: GGAUCUUCUCGAUCUAACAAAAAAGACAAAUCUGCCACAAAGCUUGAGAGCAUCUUCGGAUGCAGAGGCGGCAGCCUUCGGUGGCGCGAUAGCGCCAACGUUCUCAACUAUGACACGCAAAACGCGUGCUCCGUUGAAUGGAGUUUAUCAUG
# Variants of: B1
# Experiment: polymerase ribozyme fitness, log enrichment relative to wild type (log ratio); higher = more active; in vitro selection for triplet polymerase activity
# How it was run: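 For each subunit of a heterodimeric triplet polymerase ribozyme, a mutant library was built by PCR and transcribed, then taken through a single in vitro selection round in triplicate. Selection involved annealing to a biotinylated primer, the partner subunit and triplets, incubation frozen at −7 °C, gel excision of extended constructs, capture on streptavidin beads and RT-PCR. Genotypes were retained after Illumina sequencing of inputs and outputs only with ≥10 input reads and ≥1 read in each output. Fitness is defined as the logarithm of a genotype's enrichment relative to wild-type enrichment, using inverse-variance-weighted averages across replicates, with the logarithm taken to base 2.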
row,Variant,polymerase ribozyme fitness (log ratio)
1,GGAUCUUCUCGAUCUAACCAAAAAGACAAAUUUGCCACAAAGCUUGAGAGCAUCUUCGGAUGCAGAGGAGGCAGCCCUCGGUGGCGCGAUAGCGCCAACGUUAUCAACUAUGACACGCAAAACGCGUGCUCCGUUGAAUGGAAUAUAUCAUG,≤ -4.2
2,GGAUCUUCUCGAUCUAACCAAAAAGACAAAUUUGCCACAAAGCUUGAGGGCAUCUUCGUAUGCAGAGGCGGCAGCCUUCGGUGGCGCGAUAGCGCCAACGUUCUCAACUAUGACACGCAAAACGCGUGCUCCGUUGAAUGGAGUUUAUCAUG,≤ -4.2
3,GGAUCUUCUCGAUCUAACCACAAAGCCAAAUCUGCCACAAAGCAUGAGAGCAUCUUAGGAAGCAGAGACGGCAGCCUUCGGUGGCACGAUAGCGCCAACGUUCUCAACUAUGACACGUAAAACGCGUGCUCCGUUGAAUGGAGUUUAUCAUG,≤ -4.2
4,GGAUCUUCUCGAUCUAACCAAAAAGACAAAUCUGCCACAAAGCUUGCGAGCAUAUACGGAUGCAGAGGCGGCAGCCUUCGGUGGCGAGAUAGCGCCAACCUUCUCAACUAUGACACGCAAAACGCGUGCUCCGUUAAAUGGAGUUUAUCAUG,≤ -4.2
5,GGAUCUUCUCGAUCUAACCAAAAAGACUAAUCUGCCACAAAGCUUGAGAGCAUCUUCGGAUGCAGAGGCGGCAGACUUCGGUGGUGCGAUAUCGCCAACGUUCUCAACUAUGACACGCAAAACGCGUGCUCCGUUGAAUGGAGUUUAUCAUG,≤ -4.2
6,GGAUCUUCUCGAUCUAACCAAAAAGACAAGUCUGCCACAAAGCUUGAGAGCAUCUUCGGAUGCAGAGGCGGCAGCCUUCGGUGGCGUGAUAGCGCCAACGUUCUCAACUAUGACACGCAAAACGCGUCCUCCGUUUAAUGGAGUUUAUCAUG,≤ -4.2
7,GGAUCUUCUCGAUCUAACCGAAAAGACAAAUCUGCCACAAAGCUUGAGAGCAUCUUCGGAUGCAGAGGCGGCAGCCUUCGGUGGCGCGAUAGCGCCAACGUUCUCAACUAUGACACGCAAAACGCGUGCUCCGUUAAAUGGAGUUUGUCAUG,-2.36
8,GGAUCUUCUCGAUCUAAUAAAAAAGACAAAUCUGCCACAAAGCUUGAGAGCAUCUACGGAUGCAGAGGCGGCAGCCUUCGGUGGCGCGAGAGCGCCAAUGUUCUCAACUAUGACACGCACAACGCGUGCUCUGCUGAAUGGAGUUUAUCAUG,≤ -4.2
9,GGAUCUUCUCGAUCUAAUAAAAAAGACAAAUCUGCCACAAAGCUUGAGAGCAUCUUCGGAUGCAGAGGCGGCAGCCUUCGGUGACGCGAUAGCGCCAACGUUCUCAACUAUGGUACGCAAAACGCGUGCUCCGUUGAAUGGAGUUUAUCAUG,-2.6
10,GGAUCUUCUCGAUCUAACCAAAAAGACAAAUCUGCCACAAAGCUUGAGAGCAUCUUCGGGUGCAGAGGCGGCAGCCUUCGGUGGCGCGAUAGCGCUAACGUUCUCAACUAUGACACGCAAAACGCGUGCUCCGUUGAAUGGAGUUUAUCAUG,0.412
11,GGAUCUUCUCGAUCUAAUAAAAAAGACAAAUCUACCACAAAGCUUGAUAGCAUCUUCGGAUGCAGAGGCGGCAGUCUUCGGUGGCGCGAUAGCCCCAACGUUCUCAACUAUGACACGCAAAACGCGUGCUCCGUUGAAUGUAGUUUAUCAUG,≤ -4.2
12,GGAUCUUCUCGAUCUAAUAAAAAAGACAAAUCUGCCACAAAGCUUGAGAGCAUCUUCGGAUGCAGAGGCGGCAGCCUUCGAUGGCGUGAUAGCGCCUACGUUCUCAACUAUGACACGCAAAACGCGUGCUCCGUUGAAUGGAGUUUAUCAUG,-1.14
13,GGAUCUUCUCGAUCUAACCACAAAGACAAAUCUGCCACAAAGCUUGAGAGCAUCUUCGGAUGCAGAGGCGGCAGCUUUCGGUGGCGAGAUAGCGCCAACGUUCUCAACUGUGACACGCAGAACGCGUGCUCCGUUGAAUGGAGUUUAUCAUG,≤ -4.2
14,GGAUCUUCUCGAUCUAACCCAAAAGACAAAUCUGCCACAAAGCUUGAGAGCAUCUUCGGAUGCAGAGGCGGCAGCCUUCGGUGGCGCGAUAGCGCCAACGUUCUCAACUAUGACACGCAAAACGCGUGCUCCGUUGAAUGGAGUUUAACAUG,-3.05
15,GGAUCUUCUCGAUCUAAUAAAAAAGACAAAUCUGCCACAAAGCUUGAGAGCAUCUUCGGAUGCAGAGGCGGCAGCCUUCGGUGGCUCGAUAGCGCCAACGUUCUCAACUAUGACACGCAAAACGCGUGCUCCGUUGAAUGGAGUUUAUCAUG,-2.18
16,GGAUCUUCUCGAUCUAAUAAAAAAUACAAAUCUGCCACAAACCUUGAGAGCAUCUUCGGAUGCAGAGGCGGCUGCCUUCGGUUGCGCGAUAGUGCCAACGUUCUCGACUAUGACACGCAACACGCGUGCUCCGUUGAAUGGAGAUUAUCAUG,≤ -4.2
17,GGAUCUUCUCGAUCUAAUAAAAAAGACAAAUCUGCCACAAAGCAUUAGAGCAUCUUCGGAUGCGGAGGCGGCAGCCAUCGGUGGCGCGAUAGCGCCAACGUUCUCAACUCUGACACGCAAAACGCGUGCUCCGUUGAAUCGAGUUUAACAUG,≤ -4.2
18,GGAUCUUCUCGAUCUAACCAAAAAGACAAAUCUGCUACAAAGCUUGAGAGCAUCUUCGUGUGCAGAGGCGGCAGCCUUCGGUGGCGCGAUAGUGCCAACGUUCGCAACUAUGACACGCAAAACGCGUGCUCCGUUGAAUGGAGUUUAUCAUG,-3.23
19,GGAUCUUCUCGAUCUAACCAAAAAGACAAUUCUGCCACAAAGCUUGAGAACAUCUUCGGAUGCAGAGGCGGCCGCCUUCUGUGGCACGAUAGCGCCAACGUUCUCAACUAUGACACGAAAAACGCGUGCUCCGUUGAAUGGAGUGUAUCAUG,≤ -4.2
